In patent US20240216513A1, “FATTY ACID-BIFUNCTIONAL DEGRADER CONJUGATES AND THEIR METHODS OF USE” (Novartis AG, priority 2021, published 2024):

Assays:
[1] = BTK FAC plasma stability assay, rat plasma; type: in vitro ADME; conditions: for Plasma stability (h) rat: incubation to 24 h
Procedure: (§1) Plasma stability was conducted in Dulbecco's PBS buffer, mouse plasma, rat plasma or human plasma frozen with K3-EDTA from BiolVT). Thawed plasma was centrifuged prior to warming for 5 minutes at 37° C. Working solutions were prepared from 10 mM DMSO solution to 500 µM in acetonitrile:water (1:1); 2 µL of working solution was added to 198 µL blank plasma or PBS and mixed manually. 4×45 µL of spiked matrix was aliquoted into glass incubation plates (96-well DW glass microplate) and sealed with blue silicon/PTFE seal; then incubated on a Thermo shaker (38° C. 300 RPM). Samples were prepared at 0, 2, 6 and 24 h timepoints, by protein precipitation with chilled acetonitrile containing internal standard Glyburide (0.2 µM). Precipitated samples were shaken for 10 minutes and stored at 4° C. until completion of the study. Following precipitation of the terminal sample, samples were frozen at −80° C. for 1 hour. Samples were then thawed prior to centrifugation (20 minutes, 4500 RPM at 4° C.). 50 µL of supernatant of each sample was transferred to 384 well analysis plate containing 30 µL of water. Semi quantitative analysis (analyte: internal standard peak area ratio) was performed by LC-MS/MS using a Sciex QTrap 5500.

[2] = BTK FAC plasma stability assay, dog plasma; type: in vitro ADME
[3] = target: T1, BTK C481S (Homo sapiens, UniProt Q06187, C481S); test: PD screen in TMD8 BTK C481S mutant tumor-bearing mice, BTK levels and compound concentrations in blood and tumor; type: in vivo, mouse; conditions: i.v.; 25 umol/kg
T1 construct: endogenous in cells; host or cells: TMD8 BTK C481S mutant tumour xenografts in mice
Procedure: All animal studies were conducted in accordance with ethics and procedures covered by permit nos. BS-1975 issued by the Kantonales Veterinäramt Basel-Stadt and in strict adherence to guidelines of the Eidgenössisches Tierschutzgesetz and the Eidgenössische Tierschutzverordnung, Switzerland. All animals had access to food and water ad libitum and were identified with transponders. They were housed in a specific pathogen-free facility with a 12-h light/12-h dark cycle. For PD screen experiments in TMD8 BTK C481S mutant tumor-bearing mice, FAC was injected once. Animals were randomized into groups of 2 and tissue samples collected at day 0, 4, 7 and in some studies day 10 as well. Blood samples were collected and tumors were excised, weighed, frozen in liquid nitrogen and cryogenic dry pulverized with the CryoPrep™ system (model CP-02, Covaris). Concentrations of compounds in blood and tumors were determined by UPLC/MS-MS and BTK levels were analyzed by Meso Scale Discovery.

[4] = BTK FAC plasma stability assay, PBS buffer arm; type: physicochemical; conditions: for Plasma stability (h) PBS: incubation to 24 h
Procedure: as §1

[5] = BTK FAC plasma stability assay, mouse plasma; type: in vitro ADME; conditions: for Plasma stability (h) mouse: incubation to 24 h
Procedure: as §1

[6] = BTK FAC plasma stability assay, cyno plasma; type: in vitro ADME, cynomolgus monkey

T1 sequence (Q06187 whole entry C481S): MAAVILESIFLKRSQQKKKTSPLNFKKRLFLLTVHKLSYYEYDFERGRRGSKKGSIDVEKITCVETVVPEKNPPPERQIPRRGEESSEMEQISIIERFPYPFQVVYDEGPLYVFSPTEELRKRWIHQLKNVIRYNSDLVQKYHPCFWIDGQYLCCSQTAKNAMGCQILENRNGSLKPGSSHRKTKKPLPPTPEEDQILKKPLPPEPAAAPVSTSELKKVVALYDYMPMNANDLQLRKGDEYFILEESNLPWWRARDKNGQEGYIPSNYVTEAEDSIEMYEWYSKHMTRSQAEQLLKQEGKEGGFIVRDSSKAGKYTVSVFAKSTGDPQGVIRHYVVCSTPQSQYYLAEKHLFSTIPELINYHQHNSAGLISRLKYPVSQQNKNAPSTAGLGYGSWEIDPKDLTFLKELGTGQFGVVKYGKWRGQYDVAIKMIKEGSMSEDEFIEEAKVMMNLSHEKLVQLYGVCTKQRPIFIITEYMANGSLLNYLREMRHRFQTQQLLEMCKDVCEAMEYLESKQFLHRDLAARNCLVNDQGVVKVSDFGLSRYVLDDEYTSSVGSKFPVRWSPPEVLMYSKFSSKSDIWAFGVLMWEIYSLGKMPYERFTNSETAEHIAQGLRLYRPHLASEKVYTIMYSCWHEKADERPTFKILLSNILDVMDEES

Row | SMILES | % Release of degrader after 24 h rat [1] [%] | Plasma stability (h) rat [1] [h] | Plasma stability (h) dog [2] [h] | % Release of degrader after 24 h dog [2] [%] | Duration of BTK degradation in mouse ≥90% [3] [days] | % Release of degrader after 24 h PBS [4] [%] | Plasma stability (h) PBS [4] [h] | % Release of degrader after 24 h mouse [5] [%] | Plasma stability (h) mouse [5] [h] | Plasma stability (h) cyno [6] [h] | % Release of degrader after 24 h cyno [6] [%]
1 | CCCCCCCCCCCN(C(=O)CCCCCCCCCC(=O)O)C(CCC(=O)NCCOCCOCCOCCOCCOCCOCCOCCOCCOCCOCCOCCOCCC(=O)NCC(=O)NCN(C(=O)c1ccc(C(C)(C)O)cc1F)c1cc(F)cc(-c2ncnc3[nH]c(-c4ccc(CCN5CCC6(CC5)CCN(C(=O)c5ccc(OC)c(N7CCC(=O)NC7=O)c5)CC6)cc4)cc23)c1C)C(=O)O (stereo not shown) [Example A36, 51-Carboxy-2-(3-(6-(4-(2-(9-(3-(2,4-dioxotetrahydropyrimidin-1(2H)-yl)-4-methoxybenzoyl)-3,9-diazaspiro[5.5]undecan-3-yl)ethyl)phenyl)-7H-pyrrolo[2,3-d]pyrimidin-4-yl)-5-fluoro-2-methylphenyl)-1-(2-fluoro-4-(2-hydroxypropan-2-yl)phenyl)-1,5,8,48,53-pentaoxo-52-undecyl-11,14,17,20,23,26,29,32,35,38,41,44-dodecaoxa-2,4,7,47,52-pentaazatrihexacontan-63-oic acid] | 0 | >48 | >48 | 0 | 10 | 0 | >48 | 0.7 | 38.6 | – | –
2 | CCCCCCCCCCCN(C(=O)CCCCCCCCCC(=O)O)C(CCC(=O)NCCOCCOCCOCCOCCOCCOCCOCCOCCOCCOCCOCCOCCC(=O)NCc1cc(C(=O)OC(C)(C)c2ccc(C(=O)Nc3cc(F)cc(-c4ncnc5[nH]c(-c6ccc(CCN7CCC8(CC7)CCN(C(=O)c7ccc(OC)c(N9CCC(=O)NC9=O)c7)CC8)cc6)cc45)c3C)c(F)c2)ccn1)C(=O)O (stereo not shown) [Example A26, 46-Carboxy-1-(4-(((2-(4-((3-(6-(4-(2-(9-(3-(2,4-dioxotetrahydropyrimidin-1(2H)-yl)-4-methoxybenzoyl)-3,9-diazaspiro[5.5]undecan-3-yl)ethyl)phenyl)-7H-pyrrolo[2,3-d]pyrimidin-4-yl)-5-fluoro-2-methylphenyl)carbamoyl)-3-fluorophenyl)propan-2-yl)oxy)carbonyl)pyridin-2-yl)-3,43,48-trioxo-47-undecyl-6,9,12,15,18,21,24,27,30,33,36,39-dodecaoxa-2,42,47-triazaoctapentacontan-58-oic acid] | 7.6 | >48 | 39.2 | 10.9 | 7 | 7 | >48 | 20.4 | 30.5 | – | –
3 | CCCCCCCCCCCN(C(=O)CCCCCCCCCC(=O)O)C(CCC(=O)NCCOCCOCCOCCOCCOCCOCCOCCOCCOCCOCCOCCOCCC(=O)NCc1ccc(C(=O)OC(C)(C)c2ccc(C(=O)Nc3cc(F)cc(-c4ncnc5[nH]c(-c6ccc(CCN7CCC8(CC7)CCN(C(=O)c7ccc(OC)c(N9CCC(=O)NC9=O)c7)CC8)cc6)cc45)c3C)c(F)c2)cn1)C(=O)O (stereo not shown) [Example A25, 46-Carboxy-1-(5-(((2-(4-((3-(6-(4-(2-(9-(3-(2,4-dioxotetrahydropyrimidin-1(2H)-yl)-4-methoxybenzoyl)-3,9-diazaspiro[5.5]undecan-3-yl)ethyl)phenyl)-7H-pyrrolo[2,3-d]pyrimidin-4-yl)-5-fluoro-2-methylphenyl)carbamoyl)-3-fluorophenyl)propan-2-yl)oxy)carbonyl)pyridin-2-yl)-3,43,48-trioxo-47-undecyl-6,9,12,15,18,21,24,27,30,33,36,39-dodecaoxa-2,42,47-triazaoctapentacontan-58-oic acid] | 1.5 | 35.7 | >48 | 1.1 | – | 2.2 | >48 | 20.9 | 17.8 | >48 | 1.1
4 | CCCCCCCCCCCN(C(=O)CCCCCCCCCC(=O)O)C(CCC(=O)NCCOCCOCCOCCOCCOCCOCCOCCOCCOCCOCCOCCOCCOCCOCCOCCOCCC(=O)NCC(=O)OC(C)(C)c1ccc(C(=O)Nc2cc(F)cc(-c3ncnc4[nH]c(-c5ccc(CCN6CCC7(CC6)CCN(C(=O)c6ccc(OC)c(N8CCC(=O)NC8=O)c6)CC7)cc5)cc34)c2C)c(F)c1)C(=O)O (stereo not shown) [Example A9, 62-Carboxy-2-(4-((3-(6-(4-(2-(9-(3-(2,4-dioxotetrahydropyrimidin-(2H)-yl)-4-methoxybenzoyl)-3,9-diazaspiro[5.5]undecan-3-yl)ethyl)phenyl)-7H-pyrrolo[2,3-d]pyrimidin-4-yl)-5-fluoro-2-methylphenyl)carbamoyl)-3-fluorophenyl)-2-methyl-4,7,59,64-tetraoxo-63-undecyl-3,10,13,16,19,22,25,28,31,34,37,40,43,46,49,52,55-heptadecaoxa-6,58,63-triazatetraheptacontan-74-oic acid] | 22.4 | 6.8 | >48 | 5.7 | – | 1.2 | >48 | 15.6 | 4.6 | 30.8 | 3.7
5 | CCCCCCCCCCCN(C(=O)CCCCCCCCCC(=O)O)C(CCC(=O)NCCOCCOCCOCCOCCOCCOCCOCCOCCOCCOCCOCCOCCC(=O)NCc1ccc(C(=O)OC(C)(C)c2ccc(C(=O)Nc3cc(F)cc(-c4ncnc5[nH]c(-c6ccc(CCN7CCC8(CC7)CCN(C(=O)c7ccc(OC)c(N9CCC(=O)NC9=O)c7)CC8)cc6)cc45)c3C)c(F)c2)cc1)C(=O)O (stereo not shown) [Example A14, 46-Carboxy-1-(4-(((2-(4-((3-(6-(4-(2-(9-(3-(2,4-dioxotetrahydropyrimidin-1(2H)-yl)-4-methoxybenzoyl)-3,9-diazaspiro[5.5]undecan-3-yl)ethyl)phenyl)-7H-pyrrolo[2,3-d]pyrimidin-4-yl)-5-fluoro-2-methylphenyl)carbamoyl)-3-fluorophenyl)propan-2-yl)oxy)carbonyl)phenyl)-3,43,48-trioxo-47-undecyl-6,9,12,15,18,21,24,27,30,33,36,39-dodecaoxa-2,42,47-triazaoctapentacontan-58-oic acid] | 0.3 | >48 | >48 | 0.1 | – | 0.2 | >48 | 9.5 | >48 | >48 | 0.2
6 | COc1ccc(C(=O)N2CCC3(CCN(CCc4ccc(-c5cc6c(-c7cc(F)cc(NC(=O)c8ccc(C(C)(C)OC(=O)CNC(=O)CCOCCOCCOCCOCCOCCOCCOCCOCCOCCOCCOCCOCCNC(C)=O)cc8F)c7C)ncnc6[nH]5)cc4)CC3)CC2)cc1N1CCC(=O)NC1=O [Example A33, 2-(4-((3-(6-(4-(2-(9-(3-(2,4-Dioxotetrahydropyrimidin-1(2H)-yl)-4-methoxybenzoyl)-3,9-diazaspiro[5.5]undecan-3-yl)ethyl)phenyl)-7H-pyrrolo[2,3-d]pyrimidin-4-yl)-5-fluoro-2-methylphenyl)carbamoyl)-3-fluorophenyl)propan-2-yl (2-oxo-6,9,12,15,18,21,24,27,30,33,36,39-dodecaoxa-3-azadotetracontan-42-oyl)glycinate] | 16.7 | 2.3 | 32 | 10.4 | – | 4.8 | >48 | 27.7 | 5.1 | 45.7 | 8.1
